The text below walks through data of US11242370B2, “Neuregulin-4 compounds and methods of use” (Eli Lilly and Company, priority 2019, dated 2022).

For the assay, the target named is T1, human HER2/HER4 (Homo sapiens, UniProt Q15303).
T1 construct: expressed in transfected cells
As to the kind of experiment: Human HER2/HER4 phospho-ERK 1/2 assay, purified proteins, CHO-K1 cells. Format: cell-based. To be noted: for % Maximal NRG1 activity: maximal signal relative to native human NRG1 per plate; for EC50: purified proteins, phospho-ERK1/2. As to the method: A cell based assay utilizing CHO-K1 cells overexpressing human or rat HER receptors is used to determine activity of NRG4 compounds. CHO-K1 cells (ATCC) are grown in DMEM-F12 3:1 with 5% FBS with 20 mM HEPES, 40 μg/mL L-Proline, lx antibiotics and were split 1:5 every 2-3 days with TripLE Express (Gibco). Cells are transfected with plasmid DNA encoding HER receptors in pairs (hHER2-3, hHER2-4, rHER2-3 and rHER2-4) with Fugene 6 (Promega) according to the manufacturer's instructions. […] Transfected cells are selected with Puromycin (12 ug/ml) and Hygromycin (1 mg/ml) for 3-4 weeks and clonal lines are obtained by limited dilution cloning into 96 well plates. Clonal lines are selected by appropriate gene expression of HER2, HER3 or HER4 by Taqman method. Lines with appropriate receptor expression are confirmed by NRG1 induced phospho-ERK 1/2 responses. Clones are grown up, harvested, aliquoted into cryovials and then frozen under liquid nitrogen for long-term storage.
A phospho-ERK1/2 activity assay is utilized with CHO-K1 cells overexpressing human or rat HER receptors to determine potencies and selectivity of purified NRG4 compounds. CHO-K1 cell lines expressing the human or rat HER receptors are cultured with selection medium (DMEM-F12 3:1 with 5% FBS with 20 mM HEPES, 40 μg/mL L-Proline, 1× antibiotics, 12 μg/mL puromycin, 1 mg/mL Hygromycin B). On Day −1 (the day before phospho-ERK1/2 assay), cells are washed once with PBS, detached with enzyme free cell dissociation solution (GIBCO cat #13151-014), and resuspended in plating medium (DMEM-F12 3:1 with 20 mM HEPES, lx antibiotics, 0.2% FBS). Cells are plated in a 96-well Poly-D-Lysine coated plate (BD cat #354640) at 10,000 cells per 0.1 mL per well. Cells are cultured in a tissue culture incubator at 37° C. 5% CO2 overnight. On Day 1 (the day of pERK1/2 assay), plates are incubated at room temperature for 30 min. The culture media are removed followed by addition of 504, ligand at various concentrations diluted in PBS-20 mM HEPES-0.005% BSA. Native human NRG1 and NRG4 peptides are purchased from Reprokine (Tampa, Fla.). The stimulation time is 30 min (except for hHER2-4 1H6 line in which 15 min is used for stimulation). At the end of stimulation, ligands are removed and 704, Lysis buffer (made according to manufacturer's recipe, Perkin Elmer cat #ALSU-PERK-A10K) is added. Plates are incubated at room temperature for 10 min on plate shaker with 350 rpm agitation, then on ice for 1 hour without shaking. 304, of cell lysis is transferred to a 96-well white Optiplate (Perkin Elmer cat #6002290) for phospho-ERK1/2 assay. Briefly 7.5 μL acceptor beads are added to 30 μL lysis in Optiplate. The plate is covered with aluminum foil and incubated at room temperature for 1 hour on plate shaker with 350 rpm agitation. Then 7.5 μL donor beads are added and the plate is covered with aluminum foil and incubated at room temperature for 2 hours on plate shaker with 350 rpm agitation or at 4° C. for overnight (warm up plate at room temperature for 2 h before reading). Alpha signal data are obtained on an Envision instrument (Alpha Technology-compatible plate reader). Donor beads and acceptor beads are made according to assay protocol. The data shown are generated with either the AlphaScreen SureFire p-ERK1/2 (Thr202/Tyr204) assay kit (Cat #TGRES50k) or the AlphaLISA® SureFire® Ultra™ p-ERK 1/2 (Thr202/Tyr204) assay kit (Perkin Elmer cat #ALSU-PERK-A10K). The activity of the NRG1 peptide was similar in both types of assays. Raw data obtained from the Envision instrument is imported into GraphPad Prism software (version 7). The EC50 value is generated by a variable slope-four parameter dose response curve. The % of maximal NRG1 activity data are generated by expressing the average maximal raw data for the NRG4 compound over the average maximal raw data for the native human NRG1 per plate and multiplying by 100. Data are provided below in Tables 7-9. N values reflect number of independent assays run. […]

For the molecule “WT NRG4: wild type human NRG4 (SEQ ID NO:1); parental hFcNRG4 in screening (Tables 4-6), native peptide from Reprokine in Tables 7-9 (DHEEPCGPSHKSFCLNGGLCYVIPTIPSPFCRCVENYTGARCEEVFL; listed as Homo sapiens)”, the “% Maximal NRG1 activity” value is 75 ± 4 (N = 8) % and the midpoint of the response, the EC50, lay at 90.1 ± 33.2 nM.
For “WT NRG1: wild type human NRG1; native peptide purchased from Reprokine in Tables 7-9; comparator in the screening assays of Tables 4 and 6”, the “% Maximal NRG1 activity” value came to 100% and the 50% effective concentration (EC50) was determined as 0.67 ± 0.07 nM.

B1: Example 10: NRG4 D1G/V22Q/E44K, (GGGGS)3 linker, SEQ ID NO: 19, fused to IgG Fc dimer SEQ ID NO: 6 and 7 (protein)
chain 1: GGGGSGGGGSGGGGSGHEEPCGPSHKSFCLNGGLCYQIPTIPSPFCRCVENYTGARCEKVFL
chain 2: ECPPCPAPPVAGPSVFLFPPKPKDTLMISRTPEVTCVVVDVSHEDPEVQFNWYVDGVEVHNAKTKPREEQFNSTFRVVSVLTVVHQDWLNGKEYKCKVSNKGLPAPIEKTISKTKGQPREPQVYTLPPSREEMTKNQVSLWCLVKGFYPSDIAVEWESNGQPENNYKTTPPVLDSDGSFFLYSKLTVDKSRWQQGNVFSCSVMHEALHNHYTQKSLSLSPG
chain 3: ECPPCPAPPVAGPSVFLFPPKPKDTLMISRTPEVTCVVVDVSHEDPEVQFNWYVDGVEVHNAKTKPREEQFNSTFRVVSVLTVVHQDWLNGKEYKCKVSNKGLPAPIEKTISKTKGQPREPQVYTLPPSREEMTKNQVSLSCAVKGFYPSDIAVEWESNGQPENNYKTTPPVLDSDGSFFLVSKLTVDKSRWQQGNVFSCSVMHEALHNHYTQKSLSLSPG
Take B1: the “% Maximal NRG1 activity” value is 82 ± 4 (N = 8) % and a half-maximal effect (EC50) was put at 0.16 ± 0.02 nM.

As a reminder, the EC50 is the midpoint of the concentration-response curve.
